Assay [1] concerns the target T1, puroindoline A (Triticum aestivum, UniProt P33432 29-148).
T1 construct: puroindoline A (PINA) of Triticum aestivum cv; Recital, purified from grain; about 13 kDa, five disulfide bonds, tryptophan-rich domain; The Pina allele of cv; The preparation probably holds several C-terminally processed forms; also called PINA
T1 sequence (looked up): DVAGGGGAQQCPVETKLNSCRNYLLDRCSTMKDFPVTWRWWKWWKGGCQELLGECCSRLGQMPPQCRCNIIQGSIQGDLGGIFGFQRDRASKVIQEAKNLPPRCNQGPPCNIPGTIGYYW
The assay can be described thus: SPR; (PQQPY)8 covalently bound to a CM5 chip; PINA 2 to 20 μM flowed over, 25°C, Hepes buffer pH 7.4; steady-state fit, 1:1 Langmuir model. The note with it: both partners purified.

Assay [2] has as its target T1, puroindoline A. The experiment in a line: SPR; α-gliadin, γ-gliadin or (PQQPY)8 covalently bound to a CM5 chip (EDC/NHS, 10 mM acetate pH 4.7); PINA flowed over at 10 μL/min, 25°C, 10 mM Hepes pH 7.4, 150 mM NaCl, 3.4 mM EDTA, 0.005% P20; global kinetic fit, 1:1 Langmuir model. The note with it: both partners purified.

B1: recombinant polypeptide (PQQPY)8 (peptide)
chain: PQQPYPQQPYPQQPYPQQPYPQQPYPQQPYPQQPYPQQPY
notes: written out from '(PQQPY)8'; measured mass 4924.5 Da, theoretical 4924.3 Da; The fusion is printed as thioredoxin-DP-(PQQPY)8 and was cut in formic acid; The printed theoretical mass of 4924.3 Da fits 40 residues (eight repeats, monoisotopic) without a further proline; also called (Pro-Gln-Gln-Pro-Tyr)8; spr8; source: BLR strain, pETb32 vector, thioredoxin fusion; not shown: thioredoxin, …
As a reminder, the Kd is the free concentration of one partner at which half of the binding sites on the other are occupied at equilibrium, for simple one-to-one binding. Higher therefore signals lower affinity. By koff is commonly meant the rate constant with which the complex falls apart. Read a low koff as slow dissociation. What is called kon is the rate constant with which the complex forms. For B1, the affinity with puroindoline A [1], expressed as Kd, was 7.22 ± 2.8 µM. In the assay with puroindoline A [2], this molecule had an equilibrium dissociation constant (Kd) of 0.29 ± 0.005 µM, a koff of 0.0015 ± 0.1 s⁻¹ and an on-rate constant (kon) of 5000 ± 0.03 M⁻¹ s⁻¹.
